Laboratory results reported in patent WO2008121813A2 (dated 2009).

Biological target: T1, human DUBA polypeptide (human, UniProt Q96G74 1-571)
T1 construct: Used for endogenous DUBA of HEK293 and TLR3/293 cells and for human DUBA in transfected cells (Western blot with the hamster antibodies); also called OTUD5; OTU domain containing 5
T1 sequence: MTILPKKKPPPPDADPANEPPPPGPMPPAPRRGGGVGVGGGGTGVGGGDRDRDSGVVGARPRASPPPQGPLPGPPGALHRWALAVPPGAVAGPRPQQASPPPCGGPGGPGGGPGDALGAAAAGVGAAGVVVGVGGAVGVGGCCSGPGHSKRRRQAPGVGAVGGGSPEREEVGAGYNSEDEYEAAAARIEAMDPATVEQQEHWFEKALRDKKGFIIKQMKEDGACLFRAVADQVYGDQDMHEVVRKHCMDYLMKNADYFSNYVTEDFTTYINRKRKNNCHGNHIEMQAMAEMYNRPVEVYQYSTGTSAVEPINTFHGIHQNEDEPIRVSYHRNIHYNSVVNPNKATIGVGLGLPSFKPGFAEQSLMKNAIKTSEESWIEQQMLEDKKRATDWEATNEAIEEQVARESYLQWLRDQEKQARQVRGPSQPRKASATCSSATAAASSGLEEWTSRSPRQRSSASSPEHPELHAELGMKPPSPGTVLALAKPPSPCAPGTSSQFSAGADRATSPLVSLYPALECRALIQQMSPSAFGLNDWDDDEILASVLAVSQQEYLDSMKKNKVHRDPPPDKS
Test: anti-DUBA immunoprecipitation from TLR3/293 lysates at 0, 60 and 180 minutes, anti-TRAF3 Western blot

B1: endogenous TRAF3 (enzyme, UniProt Q13114 1-568, looked up)
chain: MESSKKMDSPGALQTNPPLKLHTDRSAGTPVFVPEQGGYKEKFVKTVEDKYKCEKCHLVLCSPKQTECGHRFCESCMAALLSSSSPKCTACQESIVKDKVFKDNCCKREILALQIYCRNESRGCAEQLMLGHLLVHLKNDCHFEELPCVRPDCKEKVLRKDLRDHVEKACKYREATCSHCKSQVPMIALQKHEDTDCPCVVVSCPHKCSVQTLLRSELSAHLSECVNAPSTCSFKRYGCVFQGTNQQIKAHEASSAVQHVNLLKEWSNSLEKKVSLLQNESVEKNKSIQSLHNQICSFEIEIERQKEMLRNNESKILHLQRVIDSQAEKLKELDKEIRPFRQNWEEADSMKSSVESLQNRVTELESVDKSAGQVARNTGLLESQLSRHDQMLSVHDIRLADMDLRFQVLETASYNGVLIWKIRDYKRRKQEAVMGKTLSLYSQPFYTGYFGYKMCARVYLNGDGMGKGTHLSLFFVIMRGEYDALLPWPFKQKVTLMLMDQGSSRRHLGDAFKPDPNSSSFKKPTGEMNIASGCPVFVAQTVLENGTYIKDDTIFIKVIVDTSDLPDP
notes: RING finger-type ubiquitin ligase; also called TNF receptor-associated factor (TRAF3)
  binding result: binds
